Experimental data taken from US20160272953A1, “Activated Sugars” (ZuChem, Inc., priority 2010, published 2016).

B1: T. thermophilus: Thermus thermophilus wild-type sugar-1-kinase (SEQ ID NO:9) (protein, listed as Thermus thermophilus)
chain: MGFQEVYGVLPQASAQAPGRVNLLGEHTDYQEGYVLPTPIPYFTRVEAAPLEGAVEAFSENLGELRARPLSSPPQGDFLDYLLGVVRALREAGHEVAGARFYVRSDLPMGAGLSSSAALEVAALRALRTLYRLPLSDLEVARLAQKAEVEYVGVRCGIMDQMAASLGQPGQALFLDTRTLAYENLPLPPGVRVAVLDLGLGRRLAEAGYNRRRQEAEEAAKRLGVRSLRDVADLCLVESLPSPLDRRARHVVSENLRVLRGVEALRRGDARAFGELMTQSHRSLAQDYEVNLPELDALVEEALRAGAYGAKLTGAGFGGAVVALVAESRFPAFREALARRFPDLKVL
B2: S. thermophilus: Streptococcus thermophilus wild-type sugar-1-kinase (SEQ ID NO:8) (protein, listed as Streptococcus thermophilus)
chain: MNTSQLREKFKEVFGVEADHTFFSPGRINLIGEHTDYNGGNVLPVAITLGTYGAARKRDDKVLRFFSANFEEKGIIEVPLENLRFEKEHNWTNYPKGVLHFLQEAGHTIDSGMDIYIYGNIPNGSGLSSSSSLELLIGVIVEKLYDIKLERLDLVKIGKQTENDFIGVNSGIMDQFAIGMGADQCAIYLDTNTLKYDLVPLDLKDNVVVIMNTNKRRELADSKYNERRAECETAVSELQEKLDIQTLGELDFLTFDAYSYLIKDENRIKRARHVVLENQRTLQARKALEAGDLEGFGRLMNASHVSLEYDYEVTGLELDTLAHTAWEQEGVLGARMTGAGFGGCAIALVNKDKVEDFKKAVGQRYEEVVGYAPSFYIAEVTGGSRVLD
B3: P. furiousus: Pyrococcus furiosus wild-type sugar-1-kinase (SEQ ID NO:10) (protein, listed as Pyrococcus furiosus)
chain: MSKITVKSPGRVNLIGEHTDYTYGYVMPMAIDLYTIITAEKYDKVQLYSEHFNEEKTFTLDNLTKEGSWIDYVKGVLWVLIQEGYKIGGLKGKITGDLPLGAGLSSSASFEVGILEVLNQLYNLNIDPLKKALLAKKAENEFVGVPCGILDQFAVVFGKKDNVIFLDTQTLQYEYIPFPKDVSVLVFYTGVKRELASSEYAERKRIAEESLRILGKESSKEVTEKDLGKLPPLHRKFFSYIVRENARVLEVRDALKEGDIEKVGKILTTAHWDLAENYRVSCEELDFFVKKAMELGAYGARLTGAGFGGSAIALVDKDKAKTIGDAILREYLAKFSWKAKYFVVKPSDGVGV

Experiment: Sugar kinase activity of cell lysates with D-galactose at 37, 45, 55° C. (DNS assay)
Format: biochemical
Conditions: 8 mM D-galactose; 37, 45 and 55° C.
Source text: The formation of a phosphorylated sugar by kinase activity can be monitored by a number of methods. One method for detecting sugar-1-kinase activity is the 3,5-dinitrosalicylic acid (DNS) assay. This assay exploits the fact that reducing sugars can reduce compounds such as 3,5-dinitrosalicylic acid, which undergo a color change upon reduction. This assay can be used for sugar-1-kinases since the product of their reaction (sugar-1-phosphate) no longer has the ability to reduce DNS. Therefore, when the reaction is complete no color change occurs when incubated with DNS and the result is a yellow color. However, when reducing sugar remains, the result is reduction of DNS and red/brown color. This assay is furthermore concentration dependent providing a linear color change from 0.1 to 10 mM reducing sugar.
The sugar kinase proteins were expressed recombinantly in E. coli induced with 0.5mM IPTG and partially purified cell lysates were then assayed (100 μL) with 400 μmM ATP, 3.5 mM Mg^2+, and 8 mM D-galactose at three different temperatures, 37, 45, and 55° C. […] A negative control was treated similarly and consisted of the host strain with empty plasmid.

Molecule	activity in partially purified cell extract
B1	more active at temperatures higher than 37 °C
B2	most activity
B3	more active at temperatures higher than 37 °C
